Test results: patent EP4803540A1 (FNCTBiotech Inc., dated 2026)

Biological target: T1, human CSF3 protein (human, UniProt P09919 31-207)
T1 construct: also called G-CSF; human colony-stimulating factor 3
T1 sequence: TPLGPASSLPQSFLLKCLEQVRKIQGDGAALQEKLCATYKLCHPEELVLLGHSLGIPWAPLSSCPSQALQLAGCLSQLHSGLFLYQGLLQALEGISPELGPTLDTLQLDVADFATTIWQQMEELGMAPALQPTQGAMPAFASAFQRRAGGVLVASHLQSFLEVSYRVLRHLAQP
Assay: high-mass MALDI MS of a mixture of Y41 antibody and human CSF3 protein; complexes of one or two CSF3 with one Y41

B1: C41 (or Y41) (antibody, human IgG1, kappa, V domains shown)
VH: EMQLVQSGAEARKPGSSVKVSCKASGYTFTNYGISWLRQTPGQGLEWMGWINPNSGGTIYAQKFQGRVTMTRDTPITTAYMELSTLRSEDTAVYYCSRGSGGAVPFDVWGQGTMVTVSS
VL: DIQMTQSPFSLSASVGDRVTITCRASQTISNRLNWYQHKPGKAPKLFIYYASSLQSGVPSRFSGSGSGTDFALTISSLQPEDFATYYCQQGYSSPRTFGQGTKVEIKR
notes: Human IgG1; the CDR numbers printed for Y41 disagree between places; also called 007A06; CSA1241
Question: Does B1 bind?
Answer: binds
